Test results published in patent US20130040894A1, “INHIBITION OR ACTIVATION OF SERINE/THREONINE ULK3 KINASE ACTIVITY” (TALLINN UNIVERSITY OF TECHNOLOGY, priority 2009, published 2013).

What was measured:
[1] = molecular target: T1, His-tagged GLI1 fragment, amino acids 426-754
T1 chain: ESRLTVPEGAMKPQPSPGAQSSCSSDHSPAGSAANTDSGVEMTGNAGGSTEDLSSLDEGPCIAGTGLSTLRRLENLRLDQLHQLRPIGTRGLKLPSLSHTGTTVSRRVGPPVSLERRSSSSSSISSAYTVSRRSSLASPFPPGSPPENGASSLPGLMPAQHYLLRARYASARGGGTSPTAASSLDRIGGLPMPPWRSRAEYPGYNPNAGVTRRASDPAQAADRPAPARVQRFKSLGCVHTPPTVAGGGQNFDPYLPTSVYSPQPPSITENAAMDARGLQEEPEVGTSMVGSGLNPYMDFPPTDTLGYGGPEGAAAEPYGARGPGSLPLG

[2] = molecular target: T2, FLAG-tagged GLI1 (full length)
T2 chain: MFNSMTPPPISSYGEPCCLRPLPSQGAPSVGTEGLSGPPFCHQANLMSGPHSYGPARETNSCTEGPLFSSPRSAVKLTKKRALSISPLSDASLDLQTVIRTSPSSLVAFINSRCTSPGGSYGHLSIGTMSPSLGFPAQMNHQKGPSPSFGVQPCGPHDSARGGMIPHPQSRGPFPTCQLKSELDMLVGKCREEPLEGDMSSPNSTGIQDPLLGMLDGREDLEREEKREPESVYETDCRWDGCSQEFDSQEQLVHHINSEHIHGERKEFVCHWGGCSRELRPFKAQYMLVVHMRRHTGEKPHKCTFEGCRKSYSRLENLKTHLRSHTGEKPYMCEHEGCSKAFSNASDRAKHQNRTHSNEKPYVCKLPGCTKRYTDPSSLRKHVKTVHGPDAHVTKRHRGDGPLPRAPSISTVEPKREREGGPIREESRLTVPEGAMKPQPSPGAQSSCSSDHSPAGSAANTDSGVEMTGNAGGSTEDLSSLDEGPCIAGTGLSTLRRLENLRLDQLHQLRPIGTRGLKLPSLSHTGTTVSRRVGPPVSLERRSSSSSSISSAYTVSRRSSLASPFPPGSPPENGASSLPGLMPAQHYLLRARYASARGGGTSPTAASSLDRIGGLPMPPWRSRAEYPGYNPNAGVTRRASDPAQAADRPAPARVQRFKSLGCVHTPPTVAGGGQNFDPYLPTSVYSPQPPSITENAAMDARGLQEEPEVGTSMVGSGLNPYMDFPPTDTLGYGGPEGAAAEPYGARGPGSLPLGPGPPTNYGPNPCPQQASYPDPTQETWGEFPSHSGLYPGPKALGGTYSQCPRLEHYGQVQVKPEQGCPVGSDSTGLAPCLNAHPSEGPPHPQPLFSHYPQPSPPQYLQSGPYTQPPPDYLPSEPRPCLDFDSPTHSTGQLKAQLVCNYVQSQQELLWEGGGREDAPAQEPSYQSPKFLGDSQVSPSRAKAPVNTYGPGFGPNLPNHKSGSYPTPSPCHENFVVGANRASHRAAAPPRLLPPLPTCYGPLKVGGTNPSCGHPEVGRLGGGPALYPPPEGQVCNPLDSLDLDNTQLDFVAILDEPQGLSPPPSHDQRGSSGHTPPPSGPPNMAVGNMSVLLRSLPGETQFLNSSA

[3] = molecular target: T3, His-tagged GLI1 fragment, amino acids 726-1106
T3 chain: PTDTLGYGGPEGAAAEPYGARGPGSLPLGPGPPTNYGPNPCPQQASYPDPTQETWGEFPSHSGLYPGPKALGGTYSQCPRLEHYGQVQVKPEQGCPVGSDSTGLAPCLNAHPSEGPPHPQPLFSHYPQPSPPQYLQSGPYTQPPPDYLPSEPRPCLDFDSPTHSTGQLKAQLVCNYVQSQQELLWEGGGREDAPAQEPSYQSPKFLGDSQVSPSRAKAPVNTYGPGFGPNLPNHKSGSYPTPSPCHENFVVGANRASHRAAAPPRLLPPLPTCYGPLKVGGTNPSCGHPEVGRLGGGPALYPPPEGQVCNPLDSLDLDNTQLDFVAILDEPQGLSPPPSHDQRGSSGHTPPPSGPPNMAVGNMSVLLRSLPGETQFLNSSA

[4] = molecular target: T4, His-tagged GLI1 fragment, amino acids 1-433
T4 chain: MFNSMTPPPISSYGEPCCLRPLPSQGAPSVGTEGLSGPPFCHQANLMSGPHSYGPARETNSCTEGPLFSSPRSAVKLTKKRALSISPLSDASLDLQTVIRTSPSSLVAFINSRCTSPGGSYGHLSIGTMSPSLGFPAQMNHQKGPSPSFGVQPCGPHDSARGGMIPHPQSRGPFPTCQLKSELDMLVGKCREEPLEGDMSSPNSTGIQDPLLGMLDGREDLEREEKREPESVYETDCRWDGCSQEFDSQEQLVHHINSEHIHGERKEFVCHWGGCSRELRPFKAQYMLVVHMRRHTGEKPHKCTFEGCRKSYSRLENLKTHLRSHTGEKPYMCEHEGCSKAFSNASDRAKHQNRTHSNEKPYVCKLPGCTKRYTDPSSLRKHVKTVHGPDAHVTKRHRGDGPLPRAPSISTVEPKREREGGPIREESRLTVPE

B1: FLAG-tagged wild-type ULK3 (human serine/threonine kinase ULK3) (protein)
chain: MAGPGWGPPRLDGFILTERLGSGTYATVYKAYAKKDTREVVAIKCVAKKSLNKASVENLLTEIEILKGIRHPHIVQLKDFQWDSDNIYLIMEFCAGGDLSRFIHTRRILPEKVARVFMQQLASALQFLHERNISHLDLKPQNILLSSLEKPHLKLADFGFAQHMSPWDEKHVLRGSPLYMAPEMVCQRQYDARVDLWSMGVILYEALFGQPPFASRSFSELEEKIRSNRVIELPLRPLLSRDCRDLLQRLLERDPSRRISFQDFFAHPWVDLEHMPSGESLGRATALVVQAVKKDQEGDSAAALSLYCKALDFFVPALHYEVDAQRKEAIKAKVGQYVSRAEELKAIVSSSNQALLRQGTSARDLLREMARDKPRLLAALEVASAAMAKEEAAGGEQDALDLYQHSLGELLLLLAAEPPGRRRELLHTEVQNLMARAEYLKEQVKMRESRWEADTLDKEGLSESVRSSCTLQ
- in vitro kinase assay, phosphorylation of a His-tagged GLI1 fragment [1]: Central part of GLI1 (amino acids 426-754) was not phosphorylated by ULK3
- in vitro kinase assay, phosphorylation signal (32P autoradiography) [2]: GLI1 and GLI3 were also phosphorylated by ULK3, but with significantly lower intensity as compared to GLI2
- in vitro kinase assay, phosphorylation of a His-tagged GLI1 fragment [3]: Two of them-GLI1(1-433) and GLI1(726-1106)-were phosphorylated by ULK3
- in vitro kinase assay, phosphorylation of a His-tagged GLI1 fragment [4]: Two of them-GLI1(1-433) and GLI1(726-1106)-were phosphorylated by ULK3
